US7115262

Key:
[1] = biological target: HIV-1 Env (LAV) (HIV-1 (LAV)) (UniProt P03377); assay: cell-based or functional assay
[2] = biological target: wildtype (WT) SF162 Env (HIV-1 (SF162)) (UniProt P19550); assay: cell-based or functional assay

MAb 17b (antibody) was tested. Which % control, Standard Assay (CXCR4 and CD4 on target cells), 17b at 0.1 µg/ml [1] did it give?
The % control, Standard Assay (CXCR4 and CD4 on target cells), 17b at 0.1 µg/ml was 93.4 % control.

What about the % control, Standard Assay (CXCR4 and CD4 on target cells), 17b at 0.5 µg/ml [1] of the same substance?
Its % control, Standard Assay (CXCR4 and CD4 on target cells), 17b at 0.5 µg/ml is 104 % control.

And the % control, Standard Assay (CXCR4 and CD4 on target cells), 17b at 1 µg/ml [1]?
The % control, Standard Assay (CXCR4 and CD4 on target cells), 17b at 1 µg/ml was 94.1 % control.

And the % control, Standard Assay (CXCR4 and CD4 on target cells), 17b at 5 µg/ml [1]?
The % control, Standard Assay (CXCR4 and CD4 on target cells), 17b at 5 µg/ml was 119 % control.

What about the % control, sCD4 Assay (CXCR4 alone on target cells, 200 nM soluble CD4 added), 17b at 0.1 µg/ml [1] of the same substance?
The % control, sCD4 Assay (CXCR4 alone on target cells, 200 nM soluble CD4 added), 17b at 0.1 µg/ml was 114 % control.

And the % control, sCD4 Assay (CXCR4 alone on target cells, 200 nM soluble CD4 added), 17b at 0.5 µg/ml [1]?
The % control, sCD4 Assay (CXCR4 alone on target cells, 200 nM soluble CD4 added), 17b at 0.5 µg/ml was 39.2 % control.

What about the % control, sCD4 Assay (CXCR4 alone on target cells, 200 nM soluble CD4 added), 17b at 1 µg/ml [1] of the same substance?
The % control, sCD4 Assay (CXCR4 alone on target cells, 200 nM soluble CD4 added), 17b at 1 µg/ml was 14.1 % control.

And the % control, sCD4 Assay (CXCR4 alone on target cells, 200 nM soluble CD4 added), 17b at 5 µg/ml [1]?
Its % control, sCD4 Assay (CXCR4 alone on target cells, 200 nM soluble CD4 added), 17b at 5 µg/ml is 0 % control.

What about the β-gal, Standard Assay (CXCR4 and CD4 on target cells), 17b at 0.1 µg/ml [1] of the same substance?
Its β-gal, Standard Assay (CXCR4 and CD4 on target cells), 17b at 0.1 µg/ml is 39.5.

And the β-gal, Standard Assay (CXCR4 and CD4 on target cells), 17b at 0.5 µg/ml [1]?
Its β-gal, Standard Assay (CXCR4 and CD4 on target cells), 17b at 0.5 µg/ml is 43.9.

And the β-gal, Standard Assay (CXCR4 and CD4 on target cells), 17b at 1 µg/ml [1]?
Its β-gal, Standard Assay (CXCR4 and CD4 on target cells), 17b at 1 µg/ml is 39.8.

And the β-gal, Standard Assay (CXCR4 and CD4 on target cells), 17b at 5 µg/ml [1]?
The β-gal, Standard Assay (CXCR4 and CD4 on target cells), 17b at 5 µg/ml was 50.5.

And the β-gal, sCD4 Assay (CXCR4 alone on target cells, 200 nM soluble CD4 added), 17b at 0.1 µg/ml [1]?
The β-gal, sCD4 Assay (CXCR4 alone on target cells, 200 nM soluble CD4 added), 17b at 0.1 µg/ml was 13.6.

And the β-gal, sCD4 Assay (CXCR4 alone on target cells, 200 nM soluble CD4 added), 17b at 0.5 µg/ml [1]?
Its β-gal, sCD4 Assay (CXCR4 alone on target cells, 200 nM soluble CD4 added), 17b at 0.5 µg/ml is 4.66.

What about the β-gal, sCD4 Assay (CXCR4 alone on target cells, 200 nM soluble CD4 added), 17b at 1 µg/ml [1] of the same substance?
The β-gal, sCD4 Assay (CXCR4 alone on target cells, 200 nM soluble CD4 added), 17b at 1 µg/ml was 1.68.

And the β-gal, sCD4 Assay (CXCR4 alone on target cells, 200 nM soluble CD4 added), 17b at 5 µg/ml [1]?
Its β-gal, sCD4 Assay (CXCR4 alone on target cells, 200 nM soluble CD4 added), 17b at 5 µg/ml is 0.

For “soluble CD4 (from UniProt P01730 26-208) (receptor)”, which β-gal activity, vaccinia-based reporter gene cell fusion assay, +sCD4 (100 nM), CCR5 target cells without CD4; WT Env duplicate [2] is on record?
The β-gal activity, vaccinia-based reporter gene cell fusion assay, +sCD4 (100 nM), CCR5 target cells without CD4; WT Env duplicate was 6.6.

And the β-gal activity, vaccinia-based reporter gene cell fusion assay, +sCD4 (100 nM), CCR5 target cells without CD4; WT Env mean [2]?
Its β-gal activity, vaccinia-based reporter gene cell fusion assay, +sCD4 (100 nM), CCR5 target cells without CD4; WT Env mean is 5.9.
